Data set [1] deals with NELF-A (6-188);NELF-C (183-590) (Homo sapiens;Homo sapiens, UniProt Q9H3P2;Q8IXH7 6-188;183-590, |). Put plainly: fluorescence anisotropy; NELF-AC: 30 mM NaCl, 3 mM MgCl2, 10 mM Na-HEPES pH 7.4, 2 mM DTT, 50 ug/ml BSA; other NELF complexes: same with 60 mM NaCl and 5 ug/ml yeast tRNA; 10 nM nucleic acid, incubated at RT, read at 30 C. To be noted: protein: recombinant;recombinant, tags: N-His6 removed by thrombin;none, copies: 1;1. On the technique in general: Fluorescence polarisation rises when a labelled molecule tumbles more slowly, as on binding a larger partner.

Data set [2] deals with NELF-A full-length;NELF-B;NELF-D (called NELF-C);NELF-E (1-138) (Homo sapiens;Homo sapiens;Homo …, UniProt Q9H3P2;Q8WX92;Q8IXH7-4;P18615 1-528;49-628;1-581;1-138, |||). Put plainly: fluorescence anisotropy; yeast tRNA 5 ug/ml; NELF-AC: 30 mM NaCl, 3 mM MgCl2, 10 mM Na-HEPES pH 7.4, 2 mM DTT, 50 ug/ml BSA; other NELF complexes: same with 60 mM NaCl and 5 ug/ml yeast tRNA; 10 nM nucleic acid, incubated at RT, read at 30 C. To be noted: protein: recombinant;recombinant;recombinant;recombinant, copies: 1;1;1;1, label: 5'-FAM.

A further data set addresses NELF-B;NELF-E (1-138) (Homo sapiens;Homo sapiens, UniProt Q8WX92;P18615 49-628;1-138, |). The data set is described as above. To be noted: protein: recombinant;recombinant, tags: N-His6-TEV in NELF-B and NELF-BE constructs (cleaved);none stated, copies: 1;1, label: 5'-FAM.
The target in data set [3] is NELF-A full-length;NELF-B;NELF-D (called NELF-C) (Homo sapiens;Homo sapiens;Homo sapiens, UniProt Q9H3P2;Q8WX92;Q8IXH7-4 1-528;49-628;1-581, ||). Described as above. As to conditions: protein: recombinant;recombinant;recombinant, tags: none stated;N-His6-TEV in NELF-B and NELF-BE constructs (cleaved);N-His6-TEV, cleaved, copies: 1;1;1, label: 5'-FAM.
The target of data set [4] is NELF-A full-length;NELF-B;NELF-D (called NELF-C);NELF-E full-length (Homo sapiens;Homo sapiens;Homo …, UniProt Q9H3P2;Q8WX92;Q8IXH7-4;P18615 1-528;49-628;1-581;1-380, |||). The data set is described as above. To be noted: protein: recombinant;recombinant;recombinant;recombinant; copies: 1;1;1;1; label: 5'-FAM; hairpin.
For a further data set, the target named is NELF-B (Homo sapiens, UniProt Q8WX92 49-628). Described as above. As to conditions: protein: recombinant; tags: N-His6-TEV in NELF-B and NELF-BE constructs (cleaved); label: 5'-FAM; single strand.
Data set [5] has as its target NELF-A full-length;NELF-B;NELF-D patch mutant (called NELF-C);NELF-E (1-138) (Homo sapiens;Homo sapiens;Homo …, UniProt Q9H3P2;Q8WX92;Q8IXH7-4;P18615 1-528;49-628;1-581;1-138, ||R282Q;K306M;K362M;K363M;K365M;K375M;K379M;R410Q;R497Q|). The data set is described as above. As to conditions: protein: recombinant;recombinant;recombinant;recombinant; copies: 1;1;1;1; label: 5'-FAM; single strand.

Data set [6] concerns the target T1, NELF-A full-length;NELF-B;NELF-D patch mutant (called NELF-C) (Homo sapiens;Homo sapiens;Homo sapiens, UniProt Q9H3P2;Q8WX92;Q8IXH7-4 1-528;49-628;1-581, ||R282Q;K306M;K362M;K363M;K365M;K375M;K379M;R410Q;R497Q). The description is as above. To be noted: protein: recombinant;recombinant;recombinant; tags: none stated;N-His6-TEV in NELF-B and NELF-BE constructs (cleaved);N-His6-TEV, cleaved; copies: 1;1;1; label: 5'-FAM; single strand.

Data set [7] has as its target T2, NELF-A (6-188) patches 1,4;NELF-C (183-590) patches 1,2,4 (Homo sapiens;Homo sapiens, UniProt Q9H3P2;Q8IXH7 6-188;183-590, R65Q;R66Q;K146M;K161M;K168M;R175Q|R291Q;K315M;K371M;K372M;K374M;R419Q;R506Q). Put plainly: fluorescence anisotropy; text says impaired; Bmax printed 12.92; NELF-AC: 30 mM NaCl, 3 mM MgCl2, 10 mM Na-HEPES pH 7.4, 2 mM DTT, 50 ug/ml BSA; other NELF complexes: same with 60 mM NaCl and 5 ug/ml yeast tRNA; 10 nM nucleic acid, incubated at RT, read at 30 C. As to conditions: protein: recombinant;recombinant; tags: N-His6 removed by thrombin;none; copies: 1;1; label: 5'-FAM; single strand.

The target of data set [8] is T2, NELF-A (6-188) patches 1,4;NELF-C …. The data set can be described thus: fluorescence anisotropy; NELF-AC: 30 mM NaCl, 3 mM MgCl2, 10 mM Na-HEPES pH 7.4, 2 mM DTT, 50 ug/ml BSA; other NELF complexes: same with 60 mM NaCl and 5 ug/ml yeast tRNA; 10 nM nucleic acid, incubated at RT, read at 30 C. To be noted: protein: recombinant;recombinant; tags: N-His6 removed by thrombin;none; copies: 1;1; label: 5'-FAM; single strand.

Data set [9] addresses NELF-A (6-188) patches 1,4;NELF-C (183-590) patches 1,2,3,4 (Homo sapiens;Homo sapiens, UniProt Q9H3P2;Q8IXH7 6-188;183-590, R65Q;R66Q;K146M;K161M;K168M;R175Q|R291Q;K315M;K371M;K372M;K374M;K384M;K388M;R419 …). Described as above. To be noted: protein: recombinant;recombinant; tags: N-His6 removed by thrombin;none; copies: 1;1; label: 5'-FAM; single strand.
Data set [10] addresses T1, NELF-A full-length;NELF-B;NELF-D patch …. Put plainly: fluorescence anisotropy; yeast tRNA 5 ug/ml; error as printed; NELF-AC: 30 mM NaCl, 3 mM MgCl2, 10 mM Na-HEPES pH 7.4, 2 mM DTT, 50 ug/ml BSA; other NELF complexes: same with 60 mM NaCl and 5 ug/ml yeast tRNA; 10 nM nucleic acid, incubated at RT, read at 30 C. To be noted: protein: recombinant;recombinant;recombinant, tags: none stated;N-His6-TEV in NELF-B and NELF-BE constructs (cleaved);N-His6-TEV, copies: 1;1;1, label: 5'-FAM, single strand.

By Kd is commonly meant the free concentration of one partner at which half of the binding sites on the other are occupied at equilibrium, for simple one-to-one binding.

Sequence of NELF-A full-length;NELF-B;NELF-D (called NELF-C);NELF-E (1-138) (Q9H3P2 whole entry, chain 1 of 4): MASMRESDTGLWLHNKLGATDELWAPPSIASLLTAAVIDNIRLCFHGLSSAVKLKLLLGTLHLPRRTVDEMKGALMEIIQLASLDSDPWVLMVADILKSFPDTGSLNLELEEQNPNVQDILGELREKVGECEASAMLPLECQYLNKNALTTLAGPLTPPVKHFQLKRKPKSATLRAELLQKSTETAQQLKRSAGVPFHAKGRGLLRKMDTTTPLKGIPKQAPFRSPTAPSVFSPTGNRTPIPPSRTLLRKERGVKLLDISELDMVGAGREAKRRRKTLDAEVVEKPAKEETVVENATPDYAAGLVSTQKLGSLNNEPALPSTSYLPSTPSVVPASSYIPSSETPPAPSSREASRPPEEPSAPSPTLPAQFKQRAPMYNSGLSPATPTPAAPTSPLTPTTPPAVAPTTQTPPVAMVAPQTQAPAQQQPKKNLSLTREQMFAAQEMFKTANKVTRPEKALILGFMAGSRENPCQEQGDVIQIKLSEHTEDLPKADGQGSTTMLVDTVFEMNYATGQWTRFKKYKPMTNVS
Sequence of NELF-A full-length;NELF-B;NELF-D (called NELF-C);NELF-E (1-138) (Q8WX92 whole entry, chain 2 of 4): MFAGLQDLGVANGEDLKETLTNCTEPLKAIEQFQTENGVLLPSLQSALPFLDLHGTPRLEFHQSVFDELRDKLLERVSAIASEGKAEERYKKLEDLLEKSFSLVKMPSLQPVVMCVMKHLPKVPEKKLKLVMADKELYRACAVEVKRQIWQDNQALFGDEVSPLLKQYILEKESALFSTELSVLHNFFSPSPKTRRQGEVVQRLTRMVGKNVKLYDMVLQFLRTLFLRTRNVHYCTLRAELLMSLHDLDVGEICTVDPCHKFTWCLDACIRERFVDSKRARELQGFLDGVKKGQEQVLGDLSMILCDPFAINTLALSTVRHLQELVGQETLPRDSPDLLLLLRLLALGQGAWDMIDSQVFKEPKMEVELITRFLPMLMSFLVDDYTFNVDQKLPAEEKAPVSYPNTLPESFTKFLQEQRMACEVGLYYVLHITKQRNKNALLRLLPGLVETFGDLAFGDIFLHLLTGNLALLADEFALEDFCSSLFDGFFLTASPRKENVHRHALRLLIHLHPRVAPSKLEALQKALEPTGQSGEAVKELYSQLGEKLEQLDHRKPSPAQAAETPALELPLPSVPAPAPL
Sequence of NELF-A full-length;NELF-B;NELF-D (called NELF-C);NELF-E (1-138) (Q8IXH7 10-590, chain 3 of 4): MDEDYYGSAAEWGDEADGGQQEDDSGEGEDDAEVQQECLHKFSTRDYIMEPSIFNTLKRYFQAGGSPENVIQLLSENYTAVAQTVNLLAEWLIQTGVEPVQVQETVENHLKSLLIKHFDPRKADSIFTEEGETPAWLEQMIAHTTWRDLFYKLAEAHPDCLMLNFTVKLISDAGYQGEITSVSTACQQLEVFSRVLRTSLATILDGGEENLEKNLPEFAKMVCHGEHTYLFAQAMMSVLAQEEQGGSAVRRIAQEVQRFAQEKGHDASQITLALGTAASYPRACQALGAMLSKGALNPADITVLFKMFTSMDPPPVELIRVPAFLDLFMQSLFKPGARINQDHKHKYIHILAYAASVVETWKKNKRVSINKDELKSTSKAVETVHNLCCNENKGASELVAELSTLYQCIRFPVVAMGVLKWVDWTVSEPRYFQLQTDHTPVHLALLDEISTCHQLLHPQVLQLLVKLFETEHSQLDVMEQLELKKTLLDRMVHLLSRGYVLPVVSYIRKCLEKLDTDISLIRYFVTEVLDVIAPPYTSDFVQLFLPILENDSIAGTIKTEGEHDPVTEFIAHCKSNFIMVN
Sequence of NELF-A full-length;NELF-B;NELF-D (called NELF-C);NELF-E (1-138) (P18615 1-138, chain 4 of 4): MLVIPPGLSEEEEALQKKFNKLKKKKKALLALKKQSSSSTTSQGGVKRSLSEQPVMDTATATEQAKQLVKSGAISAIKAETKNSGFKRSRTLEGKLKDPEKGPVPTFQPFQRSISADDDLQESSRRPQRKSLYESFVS
Sequence of NELF-A full-length;NELF-B;NELF-D (called NELF-C) (Q9H3P2 whole entry, chain 1 of 3): as the sequence (Q9H3P2 whole entry, chain 1 of 4) above
Sequence of NELF-A full-length;NELF-B;NELF-D (called NELF-C) (Q8WX92 whole entry, chain 2 of 3): as the sequence (Q8WX92 whole entry, chain 2 of 4) above
Sequence of NELF-A full-length;NELF-B;NELF-D (called NELF-C) (Q8IXH7 10-590, chain 3 of 3): as the sequence (Q8IXH7 10-590, chain 3 of 4) above
Sequence of NELF-A (6-188);NELF-C (183-590) (Q9H3P2 6-188, chain 1 of 2): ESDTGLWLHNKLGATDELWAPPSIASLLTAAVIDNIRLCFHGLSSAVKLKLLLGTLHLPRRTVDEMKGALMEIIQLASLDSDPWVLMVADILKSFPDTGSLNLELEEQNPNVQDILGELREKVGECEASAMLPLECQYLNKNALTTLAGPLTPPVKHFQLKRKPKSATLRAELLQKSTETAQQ
Sequence of NELF-A (6-188);NELF-C (183-590) (Q8IXH7 183-590, chain 2 of 2): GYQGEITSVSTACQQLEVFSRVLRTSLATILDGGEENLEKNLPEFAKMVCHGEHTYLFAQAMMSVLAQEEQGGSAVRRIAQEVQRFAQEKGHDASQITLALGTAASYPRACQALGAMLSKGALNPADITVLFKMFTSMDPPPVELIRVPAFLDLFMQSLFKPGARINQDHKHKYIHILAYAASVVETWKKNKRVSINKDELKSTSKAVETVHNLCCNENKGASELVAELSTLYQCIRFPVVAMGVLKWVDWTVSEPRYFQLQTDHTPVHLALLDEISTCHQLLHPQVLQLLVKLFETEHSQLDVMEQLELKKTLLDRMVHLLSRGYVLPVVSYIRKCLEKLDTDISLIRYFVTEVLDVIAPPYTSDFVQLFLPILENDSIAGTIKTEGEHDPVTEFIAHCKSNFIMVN
Sequence of NELF-B;NELF-E (1-138) (Q8WX92 whole entry, chain 1 of 2): as the sequence (Q8WX92 whole entry, chain 2 of 4) above
Sequence of NELF-B;NELF-E (1-138) (P18615 1-138, chain 2 of 2): as the sequence (P18615 1-138, chain 4 of 4) above

B1: 44% GC ssRNA (ssRNA)
RNA: ACCCCACAACUAAAAAAUCCCAACC
B1: the binding result in [1] (label: 5'-FAM, single strand) was “no binding”.

B2: HIV-1 TAR RNA stem loop (structured_RNA)
RNA: CCAGAUCUGAGCCUGGGAGCUCUCUGG
As for B2, the Kd in data set [2] (hairpin) amounted to 0.869 ± 0.14 µM; with NELF-B;NELF-E (1-138) (hairpin), 5.59 ± 1.05 µM; in data set [3] (hairpin) it was 1.32 ± 0.18 µM; in data set [4] it was 0.146 ± 0.03 µM.

B3: 60% GC ssDNA (ssDNA)
DNA: AAGGGGAGCGGGGGAGGATAATAGG
Take B3: the Kd in data set [1] (label: 5'-FAM, single strand) is 17.5 ± 1.33 µM; in [2] (single strand), 0.03 ± 0.01 µM; in the data set with NELF-B, 6.31 ± 1.92 µM; in data set [5] it was 0.3 ± 0.08 µM; in [6] it was 0.77 ± 0.02 µM; with NELF-B;NELF-E (1-138) (single strand), 17.4 ± 3.5 µM. Further, the Kd in data set [3] (single strand) is 0.1 ± 0.03 µM; in [7], 12.9 ± 2.28 µM.

B4: 60% GC ssRNA (ssRNA)
RNA: AAGGGGAGCGGGGGAGGAUAAUAGG
For the molecule B4, the Kd in data set [1] (label: 5'-FAM, single strand) was 6.87 ± 0.46 µM; in data set [8] it was 14.3 ± 2.41 µM; in [9], 14.3 ± 2.67 µM; in data set [2] (single strand), 0.03 ± 0.007 µM; with NELF-B, 8.5 ± 1.59 µM; in data set [5], 0.094 ± 0.02 µM. Further, the Kd with NELF-B;NELF-E (1-138) (single strand) is 2.83 ± 1 µM; in data set [3] (single strand) it was 0.074 ± 0.014 µM; in data set [10], 0.29 µM.

B5: c-fos ssDNA (ssDNA)
DNA: AAGACTGAGCCGGCGGCCGC
With B5, the binding result in data set [1] (label: 5'-FAM, single strand) is recorded as “binds”.

B6: junB ssRNA (ssRNA)
RNA: AGCGGCCAGGCCAGCCUCGGAGCCA
With B6, the Kd in [1] (label: 5'-FAM, single strand) is around 8 µM.

B7: 60% GC dsDNA (dsDNA)
DNA 1: AAGGGGAGCGGGGGAGGATAATAGG
DNA 2: CCTATTATCCTCCCCCGCTCCCCTT
As to B7, the binding result in data set [1] (label: 5'-FAM) was “no binding”.

B8: 60% GC DNA-RNA hybrid (DNA:RNA)
DNA: AAGGGGAGCGGGGGAGGATAATAGG
RNA: CCUAUUAUCCUCCCCCGCUCCCCUU
Consider B8, for which, in [1], the binding result was “no binding”.
